Here are results for one substance from patent publication US5705355A, “Hirudin, pharmaceutical compositions comprising it and their use” (Transgene, S.A., priority 1984, dated 1998).

Like-named read-outs stand apart in the source and are kept apart here.

The conditions of data set [1]: in vivo; cited from earlier work.
Data set [2] has as its system plasmin, chymotrypsin A, trypsin, papain, pepsin, subtilopeptidase A. The conditions noted are these: cited from earlier work.
Data set [3] concerns the target T1, thrombin (Homo sapiens, UniProt P00734). As to conditions: cited from earlier work.
The next data set deals with mice. As to conditions: cited from earlier work.
The subject of another data set is rabbits. The conditions noted are these: intravenously and subcutaneously; cited from earlier work.
In a further data set the test system is DIC. The conditions noted are these: rat, in vivo; cited from earlier work.
The target of data set [4] is T1, thrombin. The conditions noted are these: first estimate; read-out: dissociation constant of the 1:1 thrombin-hirudin complex; cited from earlier work.
Data set [5] in a line: heat / acid-heat treatment (70° C., pH 2.8, 15 min), antithrombin activity afterwards. The data set is classed as physicochemical. Here is the method:
In order to characterize the hirudin obtained from E. coli, analysis was performed directly on culture samples after induction, which were heated to 70° C. for 15 min or heated to 70° C. after reduction of the pH to 2.8 with HCl.
In the latter case, the pH of the extract was brought back to neutral before being assayed. […] This can reflect either the degradation or the inactivation of constituents of the extract which inhibited the action of hirudin, or possibly the rather low pH and the heating stage may, in some cases, provide for a more complete reforming of the disulfide bridges which are needed for hirudin to show maximum activity. […]
When the labeled materials from non-induced PTG718 cultures and from cultures at 3 and 5 hours after induction are treated at 70° C. and at pH 2.8 for 15 min, centrifuged to remove the denatured proteins and analyzed on an SDS-polyacrylamide gel, it is clear that the bulk of the labeled E. coli proteins are removed from the sample (FIG. 9-- lanes 1 and 2). […]
Another portion, is adjusted to pH 2.8 with dilute HCl, and then heated to 70° C. for 15 minutes. […] The supernatant is neutralized by adding dilute NaOH and the antithrombin activity is then measured. After the small modifications in volume due to the acidification and neutralization are taken into account, it can be calculated that 100% of the original activity survives this acid/heat treatment. […]

The subject of data set [6] is rats, dogs, rabbits and mice. As to conditions: in vivo, iv; cited from earlier work.

In the case of hirudin, the elimination entry in data set [1] was “rapidly eliminated”. Further, the “hirudin activity on digestion with chymotrypsin A” value in data set [2] (chymotrypsin A) is reported as “resisted”. Moreover, the “hirudin activity on digestion with papain” value in data set [2] (papain) is “sensitive”. Besides, the “hirudin activity on digestion with pepsin” value in [2] (pepsin) was “sensitive”. Moreover, in data set [2] (plasmin), the “hirudin activity on digestion with plasmin” value is reported as “resisted”. The “hirudin activity on digestion with subtilopeptidase A” value in [2] (subtilopeptidase A) is on record as “sensitive”. Further, in data set [2] (trypsin), the “hirudin activity on digestion with trypsin” value is “resisted”. Besides, the specific activity in the data set with thrombin [3] (after further stages of purification) was 10,400 U/mg; in the data set with thrombin [3] (hirudin extracted from whole leeches) it was 6,500 anti-thrombin units per milligram; in the data set with thrombin [3] (purified approximately 650 times from heads of leeches) it was 8,500 units per milligram. Besides, the “activity relative to the initial hirudin activity” value on thrombin [3] (sulfate ester (Tyr 63) made to disappear completely) was 55%. The 50% lethal dose (LD50) – broadly, the dose at which mortality reaches 50% – is given as > 500,000 U/kg of body weight with mice and more than 60 mg/kg in the data set with mice (same value expressed by weight). The tolerated dose result is recorded as “up to 1 g per kg” with mice and “up to 10 mg/kg” in the data set on rabbits. In addition, the sensitization reactions entry in the data set with mice (repeated injections over a period of two weeks) is reported as “do not lead to sensitization reactions”. For the same substance, the “treating DIC compared with heparin” value in the data set with DIC was “far superior to heparin”. Besides, the Kd at thrombin [4] was 80 pM. For the same substance, the “resistance to heat treatment under conditions of quite low pH” value in [5] was “resistance to heat treatment”. For the same substance, the “loss in activity after heat or acid/heat treatment” value in [5] (70° C. for 15 min, or 70° C. after reduction of the pH to 2.8) was “no loss in activity”. Besides, the tolerance entry in data set [6] is recorded as “well tolerated”.
